Assay results published in publication PMC8081924 (The Journal of Biological Chemistry, 2021).
Several values for one entry are separate records, joined by “and”; a condition that tells them apart may be missing. Identical values can stand only once. Like-named read-outs stand apart in the source and are kept apart here.

Assays:
AUC [1] = target: the molecule itself; test: AUC
O43175 = test: AUC
[2] = target: the molecule itself
AUC [3] = target: the molecule itself; test: AUC; remark: listed apart in the source
[4] = target: the molecule itself; test: cell-based or functional assay
AUC [5] = target: the molecule itself; test: AUC; remark: listed apart in the source
AUC [6] = target: the molecule itself; test: AUC; remark: listed apart in the source

Row | Protein | stoichiometry N (AUC [3]) | stoichiometry N (AUC [6]) | other results
1 | sPHGDH (catalytic unit of human D-3-phosphoglycerate dehydrogenase, 1-307), wild type (domain or fragment, UniProt O43175 1-307, looked up) MAFANLRKVLISDSLDPCCRKILQDGGLQVVEKQNLSKEELIAELQDCEGLIVRSATKVTADVINAAEKLQVVGRAGTGVDNVDLEAATRKGILVMNTPNGNSLSAAELTCGMIMCLARQIPQATASMKDGKWERKKFMGTELNGKTLGILGLGRIGREVATRMQSFGMKTIGYDPIISPEVSASFGVQQLPLEEIWPLCDFITVHTPLLPSTTGLLNDNTFAQCKKGVRVVNCARGGIVDEGALLRALQSGQCAGAALDVFTEEPPRDRALVDHENVISCPHLGASTKEAQSRCGEEIAVQFVDMV | – | – | stoichiometry N (AUC [1]): 2; total concentration at which the dimer and monomer peak ratio is 1:1 (O43175): the 1:1 ratio at about 1 μM; Kd [2]: 580 nM
2 | sPHGDH R135W (domain or fragment, human, UniProt O43175 1-307, looked up) MAFANLRKVLISDSLDPCCRKILQDGGLQVVEKQNLSKEELIAELQDCEGLIVRSATKVTADVINAAEKLQVVGRAGTGVDNVDLEAATRKGILVMNTPNGNSLSAAELTCGMIMCLARQIPQATASMKDGKWEWKKFMGTELNGKTLGILGLGRIGREVATRMQSFGMKTIGYDPIISPEVSASFGVQQLPLEEIWPLCDFITVHTPLLPSTTGLLNDNTFAQCKKGVRVVNCARGGIVDEGALLRALQSGQCAGAALDVFTEEPPRDRALVDHENVISCPHLGASTKEAQSRCGEEIAVQFVDMV | 2 | – | –
3 | sPHGDH R236E (domain or fragment, human, UniProt O43175 1-307, looked up) MAFANLRKVLISDSLDPCCRKILQDGGLQVVEKQNLSKEELIAELQDCEGLIVRSATKVTADVINAAEKLQVVGRAGTGVDNVDLEAATRKGILVMNTPNGNSLSAAELTCGMIMCLARQIPQATASMKDGKWERKKFMGTELNGKTLGILGLGRIGREVATRMQSFGMKTIGYDPIISPEVSASFGVQQLPLEEIWPLCDFITVHTPLLPSTTGLLNDNTFAQCKKGVRVVNCAEGGIVDEGALLRALQSGQCAGAALDVFTEEPPRDRALVDHENVISCPHLGASTKEAQSRCGEEIAVQFVDMV | 2 | – | –
4 | sPHGDH R135A (domain or fragment, human, UniProt O43175 1-307, looked up) MAFANLRKVLISDSLDPCCRKILQDGGLQVVEKQNLSKEELIAELQDCEGLIVRSATKVTADVINAAEKLQVVGRAGTGVDNVDLEAATRKGILVMNTPNGNSLSAAELTCGMIMCLARQIPQATASMKDGKWEAKKFMGTELNGKTLGILGLGRIGREVATRMQSFGMKTIGYDPIISPEVSASFGVQQLPLEEIWPLCDFITVHTPLLPSTTGLLNDNTFAQCKKGVRVVNCARGGIVDEGALLRALQSGQCAGAALDVFTEEPPRDRALVDHENVISCPHLGASTKEAQSRCGEEIAVQFVDMV | 2 | – | enzyme activity of the sPHGDH mutant at 2.4 μM against WT [4]: ~80 % of WT
5 | full-length human D-3-phosphoglycerate dehydrogenase (PHGDH, 1-533), wild type (enzyme, UniProt O43175 1-533, looked up) MAFANLRKVLISDSLDPCCRKILQDGGLQVVEKQNLSKEELIAELQDCEGLIVRSATKVTADVINAAEKLQVVGRAGTGVDNVDLEAATRKGILVMNTPNGNSLSAAELTCGMIMCLARQIPQATASMKDGKWERKKFMGTELNGKTLGILGLGRIGREVATRMQSFGMKTIGYDPIISPEVSASFGVQQLPLEEIWPLCDFITVHTPLLPSTTGLLNDNTFAQCKKGVRVVNCARGGIVDEGALLRALQSGQCAGAALDVFTEEPPRDRALVDHENVISCPHLGASTKEAQSRCGEEIAVQFVDMVKGKSLTGVVNAQALTSAFSPHTKPWIGLAEALGTLMRAWAGSPKGTIQVITQGTSLKNAGNCLSPAVIVGLLKEASKQADVNLVNAKLLVKEAGLNVTTSHSPAAPGEQGFGECLLAVALAGAPYQAVGLVQGTTPVLQGLNGAVFRPEVPLRRDLPLLLFRTQTSDPAMLPTMIGLLAEAGVRLLSYQTSLVSDGETWHVMGISSLLPSLEAWKQHVTEAFQFHF | – | – | stoichiometry N (AUC [5]): 2 and 4
6 | full-length PHGDH G140R (enzyme, human, UniProt O43175 1-533, looked up) MAFANLRKVLISDSLDPCCRKILQDGGLQVVEKQNLSKEELIAELQDCEGLIVRSATKVTADVINAAEKLQVVGRAGTGVDNVDLEAATRKGILVMNTPNGNSLSAAELTCGMIMCLARQIPQATASMKDGKWERKKFMRTELNGKTLGILGLGRIGREVATRMQSFGMKTIGYDPIISPEVSASFGVQQLPLEEIWPLCDFITVHTPLLPSTTGLLNDNTFAQCKKGVRVVNCARGGIVDEGALLRALQSGQCAGAALDVFTEEPPRDRALVDHENVISCPHLGASTKEAQSRCGEEIAVQFVDMVKGKSLTGVVNAQALTSAFSPHTKPWIGLAEALGTLMRAWAGSPKGTIQVITQGTSLKNAGNCLSPAVIVGLLKEASKQADVNLVNAKLLVKEAGLNVTTSHSPAAPGEQGFGECLLAVALAGAPYQAVGLVQGTTPVLQGLNGAVFRPEVPLRRDLPLLLFRTQTSDPAMLPTMIGLLAEAGVRLLSYQTSLVSDGETWHVMGISSLLPSLEAWKQHVTEAFQFHF | – | 2 | –
7 | full-length PHGDH R119A (enzyme, human, UniProt O43175 1-533, looked up) MAFANLRKVLISDSLDPCCRKILQDGGLQVVEKQNLSKEELIAELQDCEGLIVRSATKVTADVINAAEKLQVVGRAGTGVDNVDLEAATRKGILVMNTPNGNSLSAAELTCGMIMCLAAQIPQATASMKDGKWERKKFMGTELNGKTLGILGLGRIGREVATRMQSFGMKTIGYDPIISPEVSASFGVQQLPLEEIWPLCDFITVHTPLLPSTTGLLNDNTFAQCKKGVRVVNCARGGIVDEGALLRALQSGQCAGAALDVFTEEPPRDRALVDHENVISCPHLGASTKEAQSRCGEEIAVQFVDMVKGKSLTGVVNAQALTSAFSPHTKPWIGLAEALGTLMRAWAGSPKGTIQVITQGTSLKNAGNCLSPAVIVGLLKEASKQADVNLVNAKLLVKEAGLNVTTSHSPAAPGEQGFGECLLAVALAGAPYQAVGLVQGTTPVLQGLNGAVFRPEVPLRRDLPLLLFRTQTSDPAMLPTMIGLLAEAGVRLLSYQTSLVSDGETWHVMGISSLLPSLEAWKQHVTEAFQFHF | – | 2 | –
8 | full-length PHGDH E108A (enzyme, human, UniProt O43175 1-533, looked up) MAFANLRKVLISDSLDPCCRKILQDGGLQVVEKQNLSKEELIAELQDCEGLIVRSATKVTADVINAAEKLQVVGRAGTGVDNVDLEAATRKGILVMNTPNGNSLSAAALTCGMIMCLARQIPQATASMKDGKWERKKFMGTELNGKTLGILGLGRIGREVATRMQSFGMKTIGYDPIISPEVSASFGVQQLPLEEIWPLCDFITVHTPLLPSTTGLLNDNTFAQCKKGVRVVNCARGGIVDEGALLRALQSGQCAGAALDVFTEEPPRDRALVDHENVISCPHLGASTKEAQSRCGEEIAVQFVDMVKGKSLTGVVNAQALTSAFSPHTKPWIGLAEALGTLMRAWAGSPKGTIQVITQGTSLKNAGNCLSPAVIVGLLKEASKQADVNLVNAKLLVKEAGLNVTTSHSPAAPGEQGFGECLLAVALAGAPYQAVGLVQGTTPVLQGLNGAVFRPEVPLRRDLPLLLFRTQTSDPAMLPTMIGLLAEAGVRLLSYQTSLVSDGETWHVMGISSLLPSLEAWKQHVTEAFQFHF | – | 2 | –
9 | full-length PHGDH I121A (enzyme, human, UniProt O43175 1-533, looked up) MAFANLRKVLISDSLDPCCRKILQDGGLQVVEKQNLSKEELIAELQDCEGLIVRSATKVTADVINAAEKLQVVGRAGTGVDNVDLEAATRKGILVMNTPNGNSLSAAELTCGMIMCLARQAPQATASMKDGKWERKKFMGTELNGKTLGILGLGRIGREVATRMQSFGMKTIGYDPIISPEVSASFGVQQLPLEEIWPLCDFITVHTPLLPSTTGLLNDNTFAQCKKGVRVVNCARGGIVDEGALLRALQSGQCAGAALDVFTEEPPRDRALVDHENVISCPHLGASTKEAQSRCGEEIAVQFVDMVKGKSLTGVVNAQALTSAFSPHTKPWIGLAEALGTLMRAWAGSPKGTIQVITQGTSLKNAGNCLSPAVIVGLLKEASKQADVNLVNAKLLVKEAGLNVTTSHSPAAPGEQGFGECLLAVALAGAPYQAVGLVQGTTPVLQGLNGAVFRPEVPLRRDLPLLLFRTQTSDPAMLPTMIGLLAEAGVRLLSYQTSLVSDGETWHVMGISSLLPSLEAWKQHVTEAFQFHF | – | 2 | –
